According to paper PMC9464187 (2022):

How the values were obtained:
[1] = molecular target: HLA-A*11:01 presenting the KRAS^G12D decamer peptide …; test: SPR
[2] = molecular target: HLA-A*11:01 presenting the KRAS G12D decamer peptide …; test: SPR; biotinylated pHLA (400-500 RU) immobilised on a streptavidin-coated CM5 chip, Biacore T200; multi cycle steady state analysis, ten 2-fold dilutions of TCR starting at 50 µM; one site fit
[3] = molecular target: HLA-A*11:01 presenting the KRAS^G12D decamer peptide … (human | not stated); test: SPR; biotinylated pHLA (400-500 RU) immobilised on a streptavidin-coated CM5 sensor chip, Biacore T200; multi cycle steady state analysis, 10-point titration of JDI TCR from 50 µM to 0.1 µM; one site total least squares fit
[4] = molecular target: T1, KRAS G12D peptide on HLA-A*11:01 (human); test: SPR single cycle kinetics; soluble, with an engineered disulfide between the constant domains
T1 peptide: VVVGADGVGK

[5] = molecular target: T2, KRAS WT peptide on HLA-A*11:01 (human); test: SPR; >4000-fold weaker than to KRAS G12D; soluble, with an engineered disulfide between the constant domains
T2 peptide: VVVGAGGVGK

For JDI TCR (parent TCR) JDIa9bwt, the other: t1/2 [1] was 0.3 h.

JDI TCR (parent TCR) showed a Kd [2] of 62.8 µM and a Kd [3] of 63 µM.

With JDI TCR (parent TCR) JDIa96b35 the other: t1/2 [1] was greater than 20 h.

B1: JDIa41b1 TCR (TCR)
alpha TRAV19*01 CDR3: AMSVPSGDGSYQFT
beta TRBV6-2*01 CDR3: ASKVGPGQHNSPLH
B1 showed a t1/2 [4] of 1.2 h and a Kd [5] of 3 µM.
